Patent EP4631523A2

What was measured:
interleukin 6 (IL-6) [1] = molecular target: interleukin 6 (IL-6) (UniProt P05231); assay: IL-6 binding ELISA; 5±3°C, 3 months
interleukin 6 (IL-6) [2] = molecular target: interleukin 6 (IL-6) (UniProt P05231); assay: IL-6 binding ELISA; 40±2°C, 3 months
interleukin 6 (IL-6) [3] = molecular target: interleukin 6 (IL-6) (UniProt P05231); assay: IL-6 binding ELISA; 25±2°C, 0 months
interleukin 6 (IL-6) [4] = molecular target: interleukin 6 (IL-6) (UniProt P05231); assay: IL-6 binding ELISA; 5±3°C, 3 months; remark: listed apart in the source
interleukin 6 (IL-6) [5] = molecular target: interleukin 6 (IL-6) (UniProt P05231); assay: IL-6 binding ELISA; 40±2°C, 0 months
interleukin 6 (IL-6) [6] = molecular target: interleukin 6 (IL-6) (UniProt P05231); assay: IL-6 binding ELISA; 40±2°C, 1 month
interleukin 6 (IL-6) [7] = molecular target: interleukin 6 (IL-6) (UniProt P05231); assay: IL-6 binding ELISA; 25±2°C, 0 months; remark: listed apart in the source
interleukin 6 (IL-6) [8] = molecular target: interleukin 6 (IL-6) (UniProt P05231); assay: IL-6 binding ELISA, relative to a Phase I DS lot; 120 mg/mL formulation without methionine, T0 (frozen aliquot)
interleukin 6 (IL-6) [9] = molecular target: interleukin 6 (IL-6) (UniProt P05231); assay: IL-6 binding ELISA; 5±3°C, 9 months
interleukin 6 (IL-6) [10] = molecular target: interleukin 6 (IL-6) (UniProt P05231); assay: IL-6 binding ELISA; 25±2°C, 3 months
interleukin 6 (IL-6) [11] = molecular target: interleukin 6 (IL-6) (UniProt P05231); assay: IL-6 binding ELISA; 25±2°C, 1 month
interleukin 6 (IL-6) [12] = molecular target: interleukin 6 (IL-6) (UniProt P05231); assay: IL-6 binding ELISA; 40±2°C, 0 months; remark: listed apart in the source
interleukin 6 (IL-6) [13] = molecular target: interleukin 6 (IL-6) (UniProt P05231); assay: IL-6 binding ELISA; 5±3°C, 12 months
interleukin 6 (IL-6) [14] = molecular target: interleukin 6 (IL-6) (UniProt P05231); assay: IL-6 binding ELISA; 40±2°C, 1 month; remark: listed apart in the source
interleukin 6 (IL-6) [15] = molecular target: interleukin 6 (IL-6) (UniProt P05231); assay: IL-6 binding ELISA; 25±2°C, 3 months; remark: listed apart in the source
interleukin 6 (IL-6) [16] = molecular target: interleukin 6 (IL-6) (UniProt P05231); assay: IL-6 binding ELISA; 25±2°C, 6 months
interleukin 6 (IL-6) [17] = molecular target: interleukin 6 (IL-6) (UniProt P05231); assay: IL-6 binding ELISA; 25±2°C, 0 months; remark: listed apart in the source
interleukin 6 (IL-6) [18] = molecular target: interleukin 6 (IL-6) (UniProt P05231); assay: IL-6 binding ELISA; 40±2°C, 0 months; remark: listed apart in the source
interleukin 6 (IL-6) [19] = molecular target: interleukin 6 (IL-6) (UniProt P05231); assay: IL-6 binding ELISA; 5±3°C, 6 months
interleukin 6 (IL-6) [20] = molecular target: interleukin 6 (IL-6) (UniProt P05231); assay: IL-6 binding ELISA; 5±3°C, 1 month
interleukin 6 (IL-6) [21] = molecular target: interleukin 6 (IL-6) (UniProt P05231); assay: IL-6 binding ELISA; 25±2°C, 3 months; remark: listed apart in the source
interleukin 6 (IL-6) [22] = molecular target: interleukin 6 (IL-6) (UniProt P05231); assay: IL-6 binding ELISA; 25±2°C, 12 months
interleukin 6 (IL-6) [23] = molecular target: interleukin 6 (IL-6) (UniProt P05231); assay: IL-6 binding ELISA; 25±2°C, 1 month; remark: listed apart in the source
interleukin 6 (IL-6) [24] = molecular target: interleukin 6 (IL-6) (UniProt P05231); assay: IL-6 binding ELISA; 5±3°C, 3 months; remark: listed apart in the source
interleukin 6 (IL-6) [25] = molecular target: interleukin 6 (IL-6) (UniProt P05231); assay: IL-6 binding ELISA; 25±2°C, 0 months; remark: listed apart in the source
interleukin 6 (IL-6) [26] = molecular target: interleukin 6 (IL-6) (UniProt P05231); assay: IL-6 binding ELISA; 5±3°C, 0 months
interleukin 6 (IL-6) [27] = molecular target: interleukin 6 (IL-6) (UniProt P05231); assay: IL-6 binding ELISA; 5±3°C, 3 months; remark: listed apart in the source
interleukin 6 (IL-6) [28] = molecular target: interleukin 6 (IL-6) (UniProt P05231); assay: IL-6 binding ELISA; 40±2°C, 3 months; remark: listed apart in the source
interleukin 6 (IL-6) [29] = molecular target: interleukin 6 (IL-6) (UniProt P05231); assay: IL-6 binding ELISA; 5±3°C, 0 months; remark: listed apart in the source
interleukin 6 (IL-6) [30] = molecular target: interleukin 6 (IL-6) (UniProt P05231); assay: IL-6 binding ELISA; 5±3°C, 6 months; remark: listed apart in the source
interleukin 6 (IL-6) [31] = molecular target: interleukin 6 (IL-6) (UniProt P05231); assay: IL-6 binding ELISA; 25±2°C, 1 month; remark: listed apart in the source

Sequence of UniProt P05231 (P05231 30-212 limits assumed): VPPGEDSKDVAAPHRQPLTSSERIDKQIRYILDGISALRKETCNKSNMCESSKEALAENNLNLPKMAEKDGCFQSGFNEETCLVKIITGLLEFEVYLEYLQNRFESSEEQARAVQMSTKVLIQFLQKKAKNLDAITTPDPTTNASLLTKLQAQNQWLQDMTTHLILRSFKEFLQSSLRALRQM

B1: COR-001 antibody (antibody, human IgG1, kappa, V domains shown)
VH: EVQLVESGGGLVQPGGSLRLSCAASGFTISSNYMIWVRQAPGKGLEWVSDLYYYAGDTYYADSVKGRFTMSRDISKNTVYLQMNSLRAEDTAVYYCARWADDHPPWIDLWGRGTLVTVSS
VL: DIQMTQSPSTLSASVGDRVTITCRASQGISSWLAWYQQKPGKAPKVLIYKASTLESGVPSRFSGSGSGTEFTLTISSLQPDDFATYYCQQSWLGGSFGQGTKLEIKR
IL-6 binding ELISA (% of Reference Standard) (interleukin 6 (IL-6) [1]): 96% | IL-6 binding ELISA (% of Reference Standard) (interleukin 6 (IL-6) [2]): 86% | IL-6 binding ELISA (% of Reference Standard) (interleukin 6 (IL-6) [3]): 103% | IL-6 binding ELISA (% of Reference Standard) (interleukin 6 (IL-6) [4]): 85% | IL-6 binding ELISA (% of Reference Standard) (interleukin 6 (IL-6) [5]): 96% | IL-6 binding ELISA (% of Reference Standard) (interleukin 6 (IL-6) [6]): 95% | IL-6 binding ELISA (% of Reference Standard) (interleukin 6 (IL-6) [7]): 97% | IL-6 binding ELISA (% of assay control) (interleukin 6 (IL-6) [8]): 91% | IL-6 binding ELISA (% of Reference Standard) (interleukin 6 (IL-6) [9]): 85% | IL-6 binding ELISA (% of Reference Standard) (interleukin 6 (IL-6) [10]): 84% | IL-6 binding ELISA (% of Reference Standard) (interleukin 6 (IL-6) [11]): 95% | IL-6 binding ELISA (% of Reference Standard) (interleukin 6 (IL-6) [12]): 103% | IL-6 binding ELISA (% of Reference Standard) (interleukin 6 (IL-6) [13]): 95% | IL-6 binding ELISA (% of Reference Standard) (interleukin 6 (IL-6) [14]): 89% | IL-6 binding ELISA (% of Reference Standard) (interleukin 6 (IL-6) [15]): 102% | IL-6 binding ELISA (% of Reference Standard) (interleukin 6 (IL-6) [16]): 81% | IL-6 binding ELISA (% of Reference Standard) (interleukin 6 (IL-6) [17]): 94% | IL-6 binding ELISA (% of Reference Standard) (interleukin 6 (IL-6) [18]): 91% | IL-6 binding ELISA (% of Reference Standard) (interleukin 6 (IL-6) [19]): 83% | IL-6 binding ELISA (% of Reference Standard) (interleukin 6 (IL-6) [20]): 86% | IL-6 binding ELISA (% of Reference Standard) (interleukin 6 (IL-6) [21]): 97% | IL-6 binding ELISA (% of Reference Standard) (interleukin 6 (IL-6) [22]): 95% | IL-6 binding ELISA (% of Reference Standard) (interleukin 6 (IL-6) [23]): 110% | IL-6 binding ELISA (% of Reference Standard) (interleukin 6 (IL-6) [24]): 92% | IL-6 binding ELISA (% of Reference Standard) (interleukin 6 (IL-6) [25]): 96% | IL-6 binding ELISA (% of Reference Standard) (interleukin 6 (IL-6) [26]): 91% | IL-6 binding ELISA (% of Reference Standard) (interleukin 6 (IL-6) [27]): 93% | IL-6 binding ELISA (% of Reference Standard) (interleukin 6 (IL-6) [28]): 97% | IL-6 binding ELISA (% of Reference Standard) (interleukin 6 (IL-6) [29]): 97% | IL-6 binding ELISA (% of Reference Standard) (interleukin 6 (IL-6) [30]): 97% | IL-6 binding ELISA (% of Reference Standard) (interleukin 6 (IL-6) [31]): 98%
